Where “and” joins values, the source holds several entries; their conditions need not be identical. Equal values may be shown once.
Assays:
[1] = target: T1, monovalent hVISTA-ECD (amino acids 32-193 of SEQ ID NO: 1 with a 7xHis tail) (human, UniProt Q9H7M9 33-193); assay: SPR 37C, Ab on Protein A, hVISTA-ECD 50-5 nM, pH 6.0, average
T1 construct: analyte of the SPR assays; also called huVISTA-His; human VISTA-ECD
Procedure: Binding of several preparations of each of the ‘029 progeny clones and of the parent ‘029 antibodies, formatted as IgG1.3 antibodies, to human VISTA at pH 6.0 and 7.4 was measured by Surface plasmon resonance (SPR). SPR analysis was performed to measure koff and KD binding affinity measurements for VISTA Abs at acidic and neutral pHs using a Biacore® T100 instrument (GE Healthcare). […] Antibodies were diluted to 25 nM in PBST pH 7.4, and were captured across active biosensor flow cells at 5 ul/min for 60 seconds. A concentration series of 50 - 5 nM monovalent hVISTA-ECD (SEQ ID NO: 325) was prepared in pH 7.4 and 6.0 running buffers, and was injected over the captured antibodies at 40 ul/min to measure association and dissociation. Two 15 second injections of 10 mM glycine pH 1.5 were used to regenerate the Protein A capture surface between assay cycles. Rate constants ka (kₒₙ) and kd (koff) were derived from reference flow cell and 0 nM blank-subtracted sensorgrams, and were fit to a 1:1 binding model in Biacore® T200 Evaluation Software v.2.0. The affinity constant, KD was calculated as the ratio of rate constants koff/kₒₙ for each VISTA antibody.

[2] = target: T2, hVISTA-ECD 6-His tag (human, UniProt Q9H7M9 33-193); assay: SPR, Ab on Protein A, hVISTA analyte, pH 6.0
T2 construct: also called monovalent hVISTA-ECD; human VISTA
T2 sequence (Q9H7M9 other isoform, or with tags, fused parts or gaps limits assumed): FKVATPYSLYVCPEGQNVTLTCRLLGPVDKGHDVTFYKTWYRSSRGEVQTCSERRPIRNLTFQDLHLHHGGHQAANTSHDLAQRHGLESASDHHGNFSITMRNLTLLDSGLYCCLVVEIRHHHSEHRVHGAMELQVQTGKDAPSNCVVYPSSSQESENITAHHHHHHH

[3] = target: T2, hVISTA-ECD 6-His tag; assay: SPR, Ab on Protein A, hVISTA analyte, pH 6.9
Procedure: Further binding kinetic experiments were performed at various pHs on VISTA antibodies described herein by SPR as generally described in Example 9 above. Antibodies were normalized to 50 nM concentration in PBST pH 7.4 and captured on a Protein A CM5 chip (ID 4931) by injecting for 45 seconds at a 5 µL/min flow rate. An 8-point human VISTA titration ([…]) was prepared in PBST at pH 7.4, 6.9, 6.45, and 6.0. Titrations were injected over the captured antibodies for 180 seconds at 30 µL/min. Sensorgrams were fit to a 1:1 binding model in T200 evaluation software and the kinetic constants were reported.
Each table reports the data at one of the four tested pHs (7.4, 6.9, 6.45, and 6.0, respectively). The 8-point hVISTA titration used in these assays was chosen to provide increased confidence in kinetic values reported at neutral pH conditions. A relatively stringent cutoff for non-binding was applied in this assay. Certain progeny of P1-061029 antibody (P1-068757, ‘759, ‘765, ‘771, and ‘775) show no binding to hVISTA at micromolar concentrations at pH 7.4, while ‘761 and ‘767 show no binding to hVISTA at 100 nM at pH 7.4 but do show binding to hVISTA at micromolar concentrations.

[4] = target: T2, hVISTA-ECD 6-His tag; assay: SPR, Ab on Protein A, hVISTA analyte, pH 6.45
[5] = target: T2, hVISTA-ECD 6-His tag; assay: SPR 37 C, Ab on Protein A, pH 6.0
[6] = target: T2, hVISTA-ECD 6-His tag; assay: SPR 37 C, Ab on Protein A, pH 7.4

T1 sequence (Q9H7M9 other isoform, or with tags, fused parts or gaps limits assumed): as above

Row | Binder | Kd [1] | koff [1] | kon [1] | further results
1 | P1-068757 (antibody, human IgG1, kappa, V domains shown, IgG1.3; also called P1-068757-9) VH: EVQLVESGGGLVQPGKSLRLSCAASGFTLEDEAMHWVRQAPGKGLEWVSGINWNSEEIGYADSVKGRFTISRDNAKNSLYLQMNSLRTEDTALYYCAKVPGYSGGWIDAEDDWGQGTMVTVSS VL: not shown | 19 nM | 0.017 s⁻¹ | 890000 M⁻¹ s⁻¹ | 
2 | P1-068759 (antibody, human IgG1, kappa, V domains shown, IgG1.3; also called P1-068759-9) VH: EVQLVESGGGLVQPGKSLRLSCAASGFTLEDEAMHWVRQAPGKGLEWVSGIDWNSENIGYADSVKGRFTISRDNAKNSLYLQMNSLRTEDTALYYCAKVPGYSGGWIDAEDDWGQGTMVTVSS VL: not shown | 60 nM | 0.08 s⁻¹ | 1.3e+06 M⁻¹ s⁻¹ | 
3 | P1-068759 (antibody, human IgG1, kappa, V domains shown, also called P1-068759-9; 029 progeny) VH: EVQLVESGGGLVQPGKSLRLSCAASGFTLEDEAMHWVRQAPGKGLEWVSGIDWNSENIGYADSVKGRFTISRDNAKNSLYLQMNSLRTEDTALYYCAKVPGYSGGWIDAEDDWGQGTMVTVSS VL: not shown |  |  |  | Kd [2]: 96 nM; koff [2]: 0.058 s⁻¹; kon [2]: 600000 M⁻¹ s⁻¹
4 | P1-068765 (antibody, human IgG1, kappa, V domains shown, IgG1.3; also called P1-068765-10) VH: EVQLVESGGGLVQPGKSLRLSCAASGFTDEDYAMHWVRQAPGKGLEWVSGINWNSEEIGYADSVKGRFTISRDNAKNSLYLQMNSLRTEDTALYYCAKVPGYSGGWIDAEDDWGQGTMVTVSS VL: not shown | 19 nM | 0.007 s⁻¹ | 370000 M⁻¹ s⁻¹ | 
5 | P1-068769 (antibody, human IgG1, kappa, V domains shown, IgG1.3) VH: EVQLVESGGGLVQPGKSLRLSCAASGFTLEDEAMHWVRQAPGKGLEWVSGINWNSDHIGYADSVKGRFTISRDNAKNSLYLQMNSLRTEDTALYYCAKVPGYSGGWIDAEDDWGQGTMVTVSS VL: not shown | 55 nM | 0.04 s⁻¹ | 810000 M⁻¹ s⁻¹ | 
6 | P1-068775 (antibody, human IgG1, kappa, V domains shown, IgG1.3; also called P1-068775-8) VH: EVQLVESGGGLVQPGKSLRLSCAASGFTLEDEAMHWVRQAPGKGLEWVSGIDWNSEEIGYADSVKGRFTISRDNAKNSLYLQMNSLRTEDTALYYCAKVPGYSHGWIDAEDDWGQGTMVTVSS VL: not shown | 23 nM | 0.047 s⁻¹ | 1.8e+06 M⁻¹ s⁻¹ | 
7 | P1-072000 (P1-061029_F100fE_V102D) (antibody, human IgG1, kappa, V domains shown, also called P1-072000-3; P1-72000) VH: EVQLVESGGGLVQPGKSLRLSCAASGFTLDDYAMHWVRQAPGKGLEWVSGINWNSANIGYADSVKGRFTISRDNAKNSLYLQMNSLRTEDTALYYCAKVPGYSGGWIDAEDDWGQGTMVTVSS VL: not shown |  |  |  | Kd [3]: 280 nM and 250 nM; koff [3]: 0.011 s⁻¹; kon [3]: 39000 M⁻¹ s⁻¹ and 42000 M⁻¹ s⁻¹; Kd [2]: 11 nM and 5.8 nM; koff [2]: 0.0027 s⁻¹ and 0.0026 s⁻¹; kon [2]: 250000 M⁻¹ s⁻¹ and 450000 M⁻¹ s⁻¹; Kd [4]: 47 nM and 27 nM; koff [4]: 0.0053 s⁻¹ and 0.0044 s⁻¹; kon [4]: 110000 M⁻¹ s⁻¹ and 160000 M⁻¹ s⁻¹
8 | P1-068773 (antibody, human IgG1, kappa, V domains shown, IgG1.3) VH: EVQLVESGGGLVQPGKSLRLSCAASGFTLEDYAMHWVRQAPGKGLEWVSGIDWNSDNIGYADSVKGRFTISRDNAKNSLYLQMNSLRTEDTALYYCAKVPGYSGGWIDAEDDWGQGTMVTVSS VL: not shown | 9.4 nM | 0.0029 s⁻¹ | 300000 M⁻¹ s⁻¹ | 
9 | P1-068771 (antibody, human IgG1, kappa, V domains shown, IgG1.3; also called P1-068771-10) VH: EVQLVESGGGLVQPGKSLRLSCAASGFTLEDEAMHWVRQAPGKGLEWVSGINWNSHEIGYADSVKGRFTISRDNAKNSLYLQMNSLRTEDTALYYCAKVPGYSGGWIDAEDDWGQGTMVTVSS VL: not shown | 25 nM | 0.018 s⁻¹ | 760000 M⁻¹ s⁻¹ | 
10 | P1-068736 (antibody, human IgG1, kappa, V domains shown, IgG1.3) VH: QVQLVESGGGVVQPGRSLRLSCAASGFTFSEYAMHWVRQAPGKGLEWVAIDWYDGSNKDYADSVKGRFTISRDNSKNTLYLQMNSLRAEDTAVYYCARDSGFYDSYYFDDWGQGTLVTVSS VL: EIVLTQSPATLSLSPGERATLSCRASQSVSSSYLAWYQQKPGQAPRLLIYDASNRATGIPARFSGSGSGTDFTLTISSLEPEDFATYYCQQYNSYPYTFGQGTKLEIKR | 1.1 nM | 0.0095 s⁻¹ | 8.4e+06 M⁻¹ s⁻¹ | 
11 | P1-077835 (P1-068744 E31S) (antibody, V domains shown) VH: QVQLVESGGGVVQPGRSLRLSCAASGFTFSSYAMHWVRQAPGKGLEWVAHIWYDGSNKYEADSVKGRFTISRDNSKNTLYLQMNSLRAEDTAVYYCARDSGFYESYYFDEWGQGTLVTVSS VL: EIVLTQSPATLSLSPGERATLSCRASQSVSSSYLAWYQQKPGQAPRLLIYDASNRATGIPARFSGSGSGTDFTLTISSLEPEDFATYYCQQYNSYPYTFGQGTKLEIK |  |  |  | Kd [5]: 7.7 nM; koff [5]: 0.0017 s⁻¹; kon [5]: 220000 M⁻¹ s⁻¹; Kd [6]: 660 nM; koff [6]: 0.026 s⁻¹; kon [6]: 39000 M⁻¹ s⁻¹
12 | P1-077837 (P1-068744 H50I) (antibody, V domains shown) VH: QVQLVESGGGVVQPGRSLRLSCAASGFTFSEYAMHWVRQAPGKGLEWVAIIWYDGSNKYEADSVKGRFTISRDNSKNTLYLQMNSLRAEDTAVYYCARDSGFYESYYFDEWGQGTLVTVSS VL: EIVLTQSPATLSLSPGERATLSCRASQSVSSSYLAWYQQKPGQAPRLLIYDASNRATGIPARFSGSGSGTDFTLTISSLEPEDFATYYCQQYNSYPYTFGQGTKLEIK |  |  |  | Kd [5]: 2.5 nM; koff [5]: 0.003 s⁻¹; kon [5]: 1.2e+06 M⁻¹ s⁻¹; Kd [6]: 26 nM; koff [6]: 0.0033 s⁻¹; kon [6]: 130000 M⁻¹ s⁻¹
13 | P1-068752 (antibody, human IgG1, kappa, V domains shown, IgG1.3) VH: QVQLVESGGGVVQPGRSLRLSCAASGFTFSSYAMHWVRQAPGKGLEWVAEIWYDGSNKDYADSVKGRFTISRDNSKNTLYLQMNSLRAEDTAVYYCARDSGFYDSYYFDEWGQGTLVTVSS VL: EIVLTQSPATLSLSPGERATLSCRASQSVSSSYLAWYQQKPGQAPRLLIYDASNRATGIPARFSGSGSGTDFTLTISSLEPEDFATYYCQQYNSYPYTFGQGTKLEIKR | 5.6 nM | 0.034 s⁻¹ | 6.1e+06 M⁻¹ s⁻¹ | 
14 | P1-068744 (antibody, human IgG1, kappa, V domains shown, IgG1.3; also called P1-068744-7) VH: QVQLVESGGGVVQPGRSLRLSCAASGFTFSEYAMHWVRQAPGKGLEWVAHIWYDGSNKYEADSVKGRFTISRDNSKNTLYLQMNSLRAEDTAVYYCARDSGFYESYYFDEWGQGTLVTVSS VL: EIVLTQSPATLSLSPGERATLSCRASQSVSSSYLAWYQQKPGQAPRLLIYDASNRATGIPARFSGSGSGTDFTLTISSLEPEDFATYYCQQYNSYPYTFGQGTKLEIKR | 1.3 nM | 0.0018 s⁻¹ | 1.3e+06 M⁻¹ s⁻¹ | 
15 | P1-077839 (P1-068744 E59Y) (antibody, V domains shown) VH: QVQLVESGGGVVQPGRSLRLSCAASGFTFSEYAMHWVRQAPGKGLEWVAHIWYDGSNKYYADSVKGRFTISRDNSKNTLYLQMNSLRAEDTAVYYCARDSGFYESYYFDEWGQGTLVTVSS VL: EIVLTQSPATLSLSPGERATLSCRASQSVSSSYLAWYQQKPGQAPRLLIYDASNRATGIPARFSGSGSGTDFTLTISSLEPEDFATYYCQQYNSYPYTFGQGTKLEIK |  |  |  | Kd [5]: 85 nM; koff [5]: 0.054 s⁻¹; kon [5]: 630000 M⁻¹ s⁻¹; Kd [6]: 1300 nM; koff [6]: 0.093 s⁻¹; kon [6]: 71000 M⁻¹ s⁻¹

Second part, led by results:

Row | Kd [1] | koff [1] | kon [1] | Binder | further results
16 | 4.8 nM | 0.0016 s⁻¹ | 340000 M⁻¹ s⁻¹ | P1-069059 (antibody, human IgG1, kappa, V domains shown, IgG1.3) VH: EVQLVESGGGLVQPGKSLRLSCAASGFTLEDYAMHWVRQAPGKGLEWVSGINWNSDHIGYADSVKGRFTISRDNAKNSLYLQMNSLRTEDTALYYCAKVPGYSGGWIDAEDDWGQGTMVTVSS VL: not shown | 
17 | 9.4 nM | 0.0058 s⁻¹ | 610000 M⁻¹ s⁻¹ | P1-069073 (antibody, human IgG1, kappa, V domains shown, IgG1.3) VH: EVQLVESGGGLVQPGKSLRLSCAASGFTLEDEAMHWVRQAPGKGLEWVSGINWNSAEIGYADSVKGRFTISRDNAKNSLYLQMNSLRTEDTALYYCAKVPGYSGGWIDAEDVWGQGTMVTVSS VL: not shown | 
18 | 2.5 nM | 0.0011 s⁻¹ | 430000 M⁻¹ s⁻¹ | P1-069061 (antibody, human IgG1, kappa, V domains shown, IgG1.3) VH: EVQLVESGGGLVQPGKSLRLSCAASGFTLEDYAMHWVRQAPGKGLEWVSGINWNSAEIGYADSVKGRFTISRDNAKNSLYLQMNSLRTEDTALYYCAKVPGYSGGWIDAEDDWGQGTMVTVSS VL: not shown | 
